Substrate in this data set: CCc1cccc2cc(C(O)CNC(C)(C)C)oc12
As to the kind of experiment: purified protein. In kind it is biochemical, Gallus gallus. As to conditions: 2-200 µM bufuralol, NADPH, NADPH-P450 reductase, cytochrome b5, liposome, 10 mM MgCl2, 100 mM potassium phosphate pH 7.4, 37°C.

B1: CYP2D49 (Gallus gallus) (protein)
chain: MTLLLWLSSWSNISVLGVFLTVFTILVDFMKRRKKWSRYPPGPMPLPFVGTMPYVNYYNPHLSFEKFRKKFGNIFSLQNCWTNVVVLNGYKTVKEALVNKSEDFADRPYMPVYEHLGYGHKSEGLVLARYGHLWKELRKFTLTTLRNFGMGKKSLEERVTEEAGFLCSAISSEGGHPFDPRFLVNNAVCNVICTITYGERFDYGDKTFKKLLTLFENSLNEEAGFLPQLLNVAPVLLRIPGLPQKIFPCQKAYVDFTQMLIDKHKETWNPAYIRDFTDAFLKEMAKGKEAEENGFNKSNLTLVTADLLVAGSETTATTLRWAFLFMLLYPEIQSKVHKEIDKVIGRNRPPTMADQVNMPYTNAVIHEVQRFGDVVPMGLPHMTYRDTELQGFFIPKGTTIITNLTSVLKDETAWKKPNEFYPEHFLNENGQFVRPEAFLPFSAGRRACLGEQLTRMELFIFFTTLMQKFTFVFPEDQPRPREDSHFAFTNSPHPYQLRAVPR
notes: full-length 502-residue ORF, N-terminal ompA leader (21 aa) plus Leu-Glu spacer, Myc-His-tagged fusion, about 55 kDa, expressed in E. coli DH5alpha, purified by Ni-NTA
As to B1, the Km was determined as 3.948 ± 0.232 µM.

Source of the values: PMC3366968, “Functional Characterization of a First Avian Cytochrome P450 of the CYP2D Subfamily (CYP2D49)” (PLoS ONE, 2012).
